Results on one substance are retold here after publication PMC8455534, “A new carboxypeptidase from Aspergillus niger with good thermostability, pH stability and broad substrate specificity” (Scientific Reports, 2021).

Usually Km stands for the substrate concentration at which the rate is half of its maximum. Broadly, the Vmax is the rate approached at saturating substrate. The kcat is the number of substrate molecules converted per active site and unit of time at saturation. The term kcat/Km denotes the second-order rate constant that governs catalysis at low substrate concentration.

What all share (test): ninhydrin release assay, A570, Lineweaver-Burk
Common to all, as to assay type: biochemical, Aspergillus niger
Common to all, as to details: 0.1 mol L^−1 disodium hydrogen phosphate-citric acid buffer, pH 6.0, 45 °C

For data set [1], the system named is T1, CC(C)C[C@H](NC(=O)[C@H](Cc1ccccc1)NC(=O)OCc1ccccc1)C(=O)O.
T1 construct: ORF 1479 bp, 492 residues with predicted 19-residue signal peptide; secreted from Pichia pastoris GS115 (pPIC9K), purified; no tag told

Data set [2] relates to T2, C[C@H](NC(=O)CNC(=O)OCc1ccccc1)C(=O)O.
T2 construct: ORF 1479 bp, 492 residues with predicted 19-residue signal peptide; secreted from Pichia pastoris GS115 (pPIC9K), purified; no tag told

The test system of data set [3] is T3, C[C@H](NC(=O)OCc1ccccc1)C(=O)N[C@@H](CCC(=O)O)C(=O)O.
T3 construct: ORF 1479 bp, 492 residues with predicted 19-residue signal peptide; secreted from Pichia pastoris GS115 (pPIC9K), purified; no tag told

The subject of data set [4] is T4, C[C@H](NC(=O)OCc1ccccc1)C(=O)N[C@@H](CCCCN)C(=O)O.
T4 construct: ORF 1479 bp, 492 residues with predicted 19-residue signal peptide; secreted from Pichia pastoris GS115 (pPIC9K), purified; no tag told

Data set [5] relates to T5, O=C(O)CNC(=O)[C@@H]1CCCN1C(=O)OCc1ccccc1.
T5 construct: ORF 1479 bp, 492 residues with predicted 19-residue signal peptide; secreted from Pichia pastoris GS115 (pPIC9K), purified; no tag told

Turning to “CapA (serine carboxypeptidase) (Aspergillus niger CBS 513.88)”, the Km in data set [1] was 63 ± 10 µM; in data set [2] it was 240 ± 20 µM; in data set [3], 1440 ± 90 µM; in data set [4], 180 ± 30 µM; in data set [5], 1170 ± 210 µM. The Vmax was found to be 54800 µM/min/mg in data set [1]; 42700 µM/min/mg in data set [2]; 6490 µM/min/mg in data set [3]; 41900 µM/min/mg in data set [4]; 9770 µM/min/mg in data set [5]. Also, the kcat in data set [1] turned out to be 11.7 ± 1.02 s⁻¹; in data set [2], 1.71 ± 0.08 s⁻¹; in data set [3] it was 0.18 ± 0.01 s⁻¹; in data set [4], 2.32 ± 0.17 s⁻¹; in data set [5], 0.47 ± 0.02 s⁻¹. Also, the kcat/Km in data set [1] turned out to be 186000 ± 16700 M⁻¹ s⁻¹; in data set [2], 7130 ± 480 M⁻¹ s⁻¹; in data set [3], 130 ± 10 M⁻¹ s⁻¹; in data set [4], 12900 ± 1130 M⁻¹ s⁻¹; in data set [5], 400 ± 50 M⁻¹ s⁻¹.
